Reference: paper PMC7335780, “Role of folding kinetics of secondary structures in telomeric G-overhangs in the regulation of telomere maintenance in Saccharomyces cerevisiae”

Legend:
Cdc13-DBD [1] = molecular target: T1, Cdc13-DBD (Saccharomyces cerevisiae (strain SCY325), UniProt P32797 497-694); test: EMSA; freshly boiled probe, protein titration; EMSA: 1x K+ buffer (20 mM potassium phosphate pH 7.0, 135 mM KCl, 9% glycerol), 10 min at 22 C/RT, 6% PAGE in 0.5x TBE; NMR in K+TD (K+ buffer + 0.25% Triton X-100, 1 mM DTT); conditions: protein: recombinant; tags: GST tag (pGEX-6T-2) removed with HRV 3C protease; vector-derived residues may remain; label: 5'-32P; single strand when freshly boiled; G-hairpin after long folding
T1 sequence: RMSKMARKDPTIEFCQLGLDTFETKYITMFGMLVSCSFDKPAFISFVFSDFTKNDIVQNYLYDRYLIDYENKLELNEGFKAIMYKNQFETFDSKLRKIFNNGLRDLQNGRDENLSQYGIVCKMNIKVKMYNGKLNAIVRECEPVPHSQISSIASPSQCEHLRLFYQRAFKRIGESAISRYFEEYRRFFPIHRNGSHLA

Cdc13-DBD [2] = molecular target: T1, Cdc13-DBD; test: competition; competitor in water, 50 or 75 nM, vs 32P-ONG11; EMSA: 1x K+ buffer (20 mM potassium phosphate pH 7.0, 135 mM KCl, 9% glycerol), 10 min at 22 C/RT, 6% PAGE in 0.5x TBE; NMR in K+TD (K+ buffer + 0.25% Triton X-100, 1 mM DTT); conditions: protein: recombinant, tags: GST tag (pGEX-6T-2) removed with HRV 3C protease, vector-derived residues may remain, unfolded single strand

GTGTGGGTGTG (ssDNA, 5' phosphate) [ONG11 5'-32P probe]
binding result (Cdc13-DBD [1]): binds

GTGTGGGTGTGGTGTGGGTGTGGTGTGGGTGTG (ssDNA) [ONG1 unfolded (H2O)]
binding result (Cdc13-DBD [2]; label: none): binds

GTGTGGGTGTG (ssDNA) [ONG11 unfolded (H2O or freshly boiled)]
binding result (Cdc13-DBD [2]): binds
